Results taken from patent US20190382474A1 (SURFACE ONCOLOGY, published 2019).
Where a chain is given by its changes, count along the chain named.

T1: recombinant human IL-27 (human, UniProt Q14213 21-229; Q8NEV9 29-243)
T1 construct: Bought from R&D Systems (Cat. 2526-IL); also called hIL-27; rhIL-27
T1 sequence 1: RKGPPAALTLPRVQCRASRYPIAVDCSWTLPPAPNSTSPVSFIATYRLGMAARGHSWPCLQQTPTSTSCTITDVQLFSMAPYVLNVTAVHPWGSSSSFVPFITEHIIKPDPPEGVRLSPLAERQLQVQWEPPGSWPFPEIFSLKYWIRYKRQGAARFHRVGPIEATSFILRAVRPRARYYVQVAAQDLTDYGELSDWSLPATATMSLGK
T1 sequence 2: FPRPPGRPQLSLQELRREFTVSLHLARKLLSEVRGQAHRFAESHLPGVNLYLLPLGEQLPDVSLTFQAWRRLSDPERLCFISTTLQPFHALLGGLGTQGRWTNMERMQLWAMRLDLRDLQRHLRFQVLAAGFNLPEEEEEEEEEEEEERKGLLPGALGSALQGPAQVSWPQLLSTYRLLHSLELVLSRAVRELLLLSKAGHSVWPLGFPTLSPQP

T2: recombinant mouse IL-27 (mouse, UniProt O35228 19-228; Q8K3I6 29-234, limits assumed)
T2 construct: also called rodent recombinant IL-27
T2 sequence (looked up) 1: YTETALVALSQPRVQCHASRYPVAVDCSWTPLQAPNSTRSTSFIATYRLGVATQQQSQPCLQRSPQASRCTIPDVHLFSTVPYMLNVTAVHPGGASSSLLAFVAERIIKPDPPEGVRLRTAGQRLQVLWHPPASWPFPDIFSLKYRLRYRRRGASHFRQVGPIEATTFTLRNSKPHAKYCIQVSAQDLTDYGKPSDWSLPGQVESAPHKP
T2 sequence (looked up) 2: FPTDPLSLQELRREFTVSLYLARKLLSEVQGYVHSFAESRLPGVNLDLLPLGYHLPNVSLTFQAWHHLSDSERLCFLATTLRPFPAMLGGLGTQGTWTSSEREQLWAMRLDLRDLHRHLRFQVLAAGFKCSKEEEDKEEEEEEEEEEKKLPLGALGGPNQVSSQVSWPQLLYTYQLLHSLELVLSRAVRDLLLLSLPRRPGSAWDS

B1: Ab7.6 (antibody, human IgG1, kappa, V domains shown)
VH: EVKLVESGGGLVQPGGSLRLSCAASGFTFTSYSMSWVRQAPGKGLEWVAYISYDGGSAYYPDTVKGRFTISRDNSKKTLYLQMSSLKSEDTAMYYCARHGDYDDDDAMDYWGQGTSVTVSS
VL: DIQMTQSPSSLSASVGDRVTITCRASENIYSYLAWYQQKPGKAPKLLVYNAETLTEGVPSRFSGSGSGTDFTLTISSLQPEDFATYYCQHHYGTPLTFGQGTKLEIKR
notes: human IgG1/kappa
B2: Ab7.19 (antibody, human IgG1, kappa, V domains shown)
VH: B1 VH with K3Q, K77N, S84N, K87R, S88A, M93V, S116L
VL: B1 VL with A34N
notes: human IgG1/kappa; also called Ab7-VL4 humanized variant
B3: Ab7.7 (antibody, human IgG1, kappa, V domains shown)
VH: B1 VH
VL: B1 VL with A34N
notes: as for B2
B4: Ab7.11 (antibody, human IgG1, kappa, V domains shown)
VH: B1 VH with K3Q, K77N, S116L
VL: B1 VL with A34N
notes: as for B2
B5: Ab7.23 (antibody, human IgG1, kappa, V domains shown)
VH: B1 VH with K3Q, A49S, K77N, S84N, K87R, S88A, M93V, S116L
VL: B1 VL with A34N
notes: as for B2
B6: Ab7.15 (antibody, human IgG1, kappa, V domains shown)
VH: B1 VH with S84N, K87R, S88A, M93V, S116L
VL: B1 VL with A34N
notes: as for B2
B7: SRF381 (antibody, V domains shown)
VH: EVQLVESGGGLVKPGGSLRLSCAASGFTFRSYGMNWVRQAPGKGLEWVSSISSSSSYIYYADSVKGRFTISRDNAKNSLYLQMNSLRAEDTAVYYCARDGGRTSYTATAHNWFDPWGQGTLVTVSS
VL: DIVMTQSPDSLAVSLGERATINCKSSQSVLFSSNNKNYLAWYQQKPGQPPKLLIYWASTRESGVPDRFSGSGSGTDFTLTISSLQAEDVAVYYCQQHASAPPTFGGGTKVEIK
notes: also called SRF381-A; SRF381-B
B8: SRF410 (antibody, V domains shown)
VH: QVQLVQSGAEVKKPGSSVKVSCKASGGTFSAYAISWVRQAPGQGLEWMGGIIPIFGTANYAQKFQGRVTITADESTSTAYMELSSLRSEDTAVYYCARSYYSSRWHYYYYMDVWGKGTTVTVSS
VL: DIQMTQSPSSVSASVGDRVTITCRASQGISSWLAWYQQKPGKAPKLLIYAASNLQSGVPSRFSGSGSGTDFTLTISSLQPEDFATYYCQQADDLPLTFGGGTKVEIK
notes: also called SRF410-A; SRF410-B
B9: SRF405 (antibody, V domains shown)
VH: B8 VH with S30V, A31G, T57I
VL: B8 VL
notes: also called SRF405-A; SRF405-B
B10: SRF411 (antibody, V domains shown)
VH: B8 VH with S30E, A31S, A33T, I52A, N59H
VL: B8 VL
notes: also called SRF411-A; SRF411-B
B11: SRF538 (antibody, V domains shown)
VH: QVQLVESGGGVVQPGRSLRLSCAASGFTFSSYGMHWVRQAPGKGLEWVAVIWYDGSNKYYADSVKGRFTISRDNSKNTLYLQMNSLRAEDTAVYYCARGAPEYVDVWGQGTMVTVSS
VL: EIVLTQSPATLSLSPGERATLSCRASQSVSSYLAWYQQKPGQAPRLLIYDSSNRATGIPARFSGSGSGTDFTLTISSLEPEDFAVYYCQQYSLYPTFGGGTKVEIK
notes: also called SRF538-A; SRF538-B
B12: SRF543 (antibody, V domains shown)
VH: QVQLQQWGAGLLKPSETLSLTCAVYGGSFSDYEWSWIRQPPGKGLEWIGEIDWSGITNYNPSLKSRVTISVDTSKNQFSLKLSSVTAADTAVYYCARLPMYYYDSSVSTGSVDVWGQGTMVTVSS
VL: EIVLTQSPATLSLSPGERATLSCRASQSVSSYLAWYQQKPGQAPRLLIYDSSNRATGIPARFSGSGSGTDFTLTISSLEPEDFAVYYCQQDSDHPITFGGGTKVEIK
notes: also called SRF543-A; SRF543-B
B13: SRF535 (antibody, V domains shown)
VH: EVQLVESGGGLVQPGGSLRLSCAASGFTFSSYGMSWVRQAPGKGLEWVANIKQDGSEKYYVDSVKGRFTISRDNAKNSLYLQMNSLRAEDTAVYYCARDAPWDIYDYYMDVWGKGTTVTVSS
VL: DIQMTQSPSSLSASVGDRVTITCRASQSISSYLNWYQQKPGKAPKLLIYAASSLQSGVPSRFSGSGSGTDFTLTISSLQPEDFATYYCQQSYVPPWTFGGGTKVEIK
notes: also called SRF535-A; SRF535-B
B14: SRF384 (antibody, V domains shown)
VH: B7 VH with R30S, S31R, S56A, Y59L
VL: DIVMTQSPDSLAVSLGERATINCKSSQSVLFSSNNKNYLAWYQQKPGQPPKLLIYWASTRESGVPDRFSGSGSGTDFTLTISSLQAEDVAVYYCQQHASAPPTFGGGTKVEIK
notes: also called SRF384-A; SRF384-B
B15: SRF382 (antibody, V domains shown)
VH: B7 VH with R30S, S31R, Y32T
VL: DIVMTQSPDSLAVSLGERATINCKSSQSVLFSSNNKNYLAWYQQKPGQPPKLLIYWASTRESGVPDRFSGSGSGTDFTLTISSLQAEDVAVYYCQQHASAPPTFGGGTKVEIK
notes: also called SRF382-A; SRF382-B
B16: SRF386 (antibody, V domains shown)
VH: B7 VH with R30A
VL: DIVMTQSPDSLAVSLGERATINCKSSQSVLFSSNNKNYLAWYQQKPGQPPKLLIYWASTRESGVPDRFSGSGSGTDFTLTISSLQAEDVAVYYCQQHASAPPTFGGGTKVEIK
notes: also called SRF386-A; SRF386-B

The binders below were run against T1, recombinant human IL-27 (assay: SPR single cycle kinetics, 1:1 model).
Description: The antibodies were further characterized by surface plasmon resonance (SPR). Kinetic experiments were performed on a Biacore T200 (GE Healthcare, Uppsala, Sweden). All experiments were run at 25° C. with HBS-P+ running buffer (pH 7.4) (GE Healthcare, Little Chalfont, UK) using hIL-27 (R&D Systems, Abingdon, UK). Human IL-27 (hIL-27) antigen was captured on a CM5 chip to ˜16 RU. Immobilization was carried out at a protein concentration of 1 μg/mL in 10 mM acetate buffer pH 5.0. A three point, three-fold dilution range from 3.3 nM to 30 nM of antibody diluted in HBS-P+ buffer without regeneration between each concentration was used. The association phase for the three injections of increasing concentrations of antibody was monitored for 75 seconds each time and a single dissociation phase was measured for 250 seconds following the last injection of antibody. Regeneration of the hIL-27 surface was conducted using a single injection of 2M MgCl₂ for 120 s. Multiple repeats (n=4) of the chimeric antibody were performed throughout the assay to check the stability of the surface and analyte over the kinetic cycles.

Row | binding result | Binder
1 | binds | B1

These binders were tested against T1, recombinant human IL-27 (assay: SPR (Biacore T200), hIL-27 on CM5 chip, single cycle kinetics).

Row | Binder | binding result
2 | B2 | no binding (tested: 3.3 nM to 30 nM of antibody)
3 | B3 | no binding (tested: 3.3 nM to 30 nM of antibody)
4 | B4 | no binding (tested: 3.3 nM to 30 nM of antibody)
5 | B5 | no binding (tested: 3.3 nM to 30 nM of antibody)
6 | B6 | no binding (tested: 3.3 nM to 30 nM of antibody)

The binders below were run against T1, recombinant human IL-27 (assay: cell-based or functional assay).

Row | IC50 of inhibition of phosphorylation of STAT1 in HUT-78 cells | IC50 of inhibition of phosphorylation of STAT1 in U937 cells | IC50 of inhibition of phosphorylation of STAT1 in pooled human PBMCs | Binder
7 | 0.08 µg/mL | 0.081 µg/mL | 0.141 µg/mL | B7

The binders below were run against T2, recombinant mouse IL-27 (assay: column 'Affinity mIL-27 (M)'; method not given).

Row | Kd | binding result | Binder
8 | 5.81 nM | – | B8
9 | 5.02 nM | – | B9
10 | 0.546 nM | – | B10
11 | 182 nM | – | B11
12 | 62.1 nM | – | B12
13 | – | no binding | B13
14 | 0.456 nM | – | B7
15 | 0.405 nM | – | B14
16 | 2.5 nM | – | B15
17 | 1.75 nM | – | B16

What follows are binders tested against T1, recombinant human IL-27 (assay: SPR (BIACORE 2000) as the paragraph says; values in FIG. 9).

Row | Kd | Binder
18 | ≤ 15 nM | B8
19 | ≤ 15 nM | B9
20 | ≤ 15 nM | B10
21 | ≤ 15 nM | B11
22 | ≤ 15 nM | B13
23 | ≤ 15 nM | B14
24 | ≤ 15 nM | B15
25 | ≤ 15 nM | B16

Each binder was assayed against T1, recombinant human IL-27 (assay: column 'Affinity hIL-27 (M)', property (i); method not given, paragraph 885 names SPR (BIACORE 2000)).

Row | Kd | Binder
26 | 0.39 nM | B8
27 | 0.1 nM | B9
28 | 0.43 nM | B10
29 | 8.93 nM | B11
30 | 0.026 nM | B12
31 | 11.5 nM | B13
32 | 0.0028 nM | B7
33 | 0.0024 nM | B14
34 | 0.0075 nM | B15
35 | 0.0034 nM | B16
